In patent publication US12214059B2, “Cleavable radioligands for targeting cell surface receptors and uses thereof” (Full-Life Te[…] Limited, priority 2021, dated 2025):

Key:
PSMA = biological target: T1, PSMA (Homo sapiens, UniProt Q04609); assay: Cell-based radioligand competitive binding assay (^125I-C-8, LNCaP cells); conditions: C-1 = 1.00
T1 construct: host or cells: LNCaP cells
Method: The culture medium was replaced with fresh medium every 2-3 days. Experiments were performed with cells at 70-80% confluence.
The final volume in each well was maintained at 200 μL and insufficient volume was adjusted by the binding buffer.

[1] = Ex-vivo mouse plasma stability study of ^177Lu-labeled compounds; type: in vitro ADME; conditions: 37° C.
Method: Plasma Stability Study (Mouse and Human)
Mouse blood was collected via cardiac puncture of the left ventricle. Blood was placed into heparin-coated microfuge tubes and then centrifuged at 3500 rpm for 10 min to separate plasma for stability studies. Human plasma was purchased directly.
At each time point (0, 1, 2, 4, 24, 48 72 h), an aliquot of 25 μL sample was taken and mixed with 100 μL methanol containing 1% formic acid, vertex for 30-60 sec, then centrifuged at 20000 rpm for 10 min. 100 μL supernatant was collected and diluted with 40 μL H2O. 100 μL of the resulting mixture was injected to radio-HPLC for stability assessment, as shown examples FIG. 2 and FIG. 3. The best-fit T½ value of test compounds were calculated by fitting the data with linear or non-linear regression using GraphPad Prism 8.0.1.

[2] = system: PC-3 PIP tumor-bearing mice; assay: Biodistribution study in SCID mice bearing PC3-PIP tumor; type: in vivo, mouse; conditions: for T/K at 4 h (tumor uptake/kidney uptake) / T at 24 h (tumor uptake) / T/K at 24 h (tumor uptake/kidney uptake) / T at 96 h (tumor uptake) / T/K at 96 h (tumor uptake/kidney uptake): PC3 PIP tumor-bearing mice
Method: Biodistribution Study in SCID Mice Bearing PC3-PIP Tumor
Severe combined immunodeficient (ICR-SCID) mice from the Institute of Cancer Research (Taconic Farms, Germantown, NY) were utilized for these studies. […] These mice received bilateral subcutaneous rear flank injections of approximately 10×10^6 PC-3 PIP cells (prostate cancer cell PC-3 stably expressing human PSMA) suspended in 100 μL of 0.9% NaCl. […] The tissues and organs were weighed, counted in a PerkinElmer Wizard 3 automatic γ counter, and the percent injected dose (% ID) and % ID/g of each organ or tissue were calculated, as shown in Tables 5-24 and FIG. 1 and FIG. 2.

LNCap tumor-bearing mice = assay: Biodistribution study in CB-17 SCID mice bearing LNCap tumor; type: in vivo, mouse
Method: Biodistribution Study in CB-17 SCID Mice Bearing LNCap Tumor
All animal care and experimental procedure were performed by following the animal protocols approved by the ethics committee of China Institute of Radiation Protection. The CB-17 SCID mice (Charles River, Beijing) were utilized for these studies. […] These mice received subcutaneous rear flank injections of approximately 4×10^6 LNCap cells suspended in 200 μL of phosphate-buffered saline (PBS) and Matrigel (Corning) (1/1).

[3] = based on the mean value of the IC50 number
[4] = * = value obtained using nonlinear regression

T1 sequence (Q04609 whole entry): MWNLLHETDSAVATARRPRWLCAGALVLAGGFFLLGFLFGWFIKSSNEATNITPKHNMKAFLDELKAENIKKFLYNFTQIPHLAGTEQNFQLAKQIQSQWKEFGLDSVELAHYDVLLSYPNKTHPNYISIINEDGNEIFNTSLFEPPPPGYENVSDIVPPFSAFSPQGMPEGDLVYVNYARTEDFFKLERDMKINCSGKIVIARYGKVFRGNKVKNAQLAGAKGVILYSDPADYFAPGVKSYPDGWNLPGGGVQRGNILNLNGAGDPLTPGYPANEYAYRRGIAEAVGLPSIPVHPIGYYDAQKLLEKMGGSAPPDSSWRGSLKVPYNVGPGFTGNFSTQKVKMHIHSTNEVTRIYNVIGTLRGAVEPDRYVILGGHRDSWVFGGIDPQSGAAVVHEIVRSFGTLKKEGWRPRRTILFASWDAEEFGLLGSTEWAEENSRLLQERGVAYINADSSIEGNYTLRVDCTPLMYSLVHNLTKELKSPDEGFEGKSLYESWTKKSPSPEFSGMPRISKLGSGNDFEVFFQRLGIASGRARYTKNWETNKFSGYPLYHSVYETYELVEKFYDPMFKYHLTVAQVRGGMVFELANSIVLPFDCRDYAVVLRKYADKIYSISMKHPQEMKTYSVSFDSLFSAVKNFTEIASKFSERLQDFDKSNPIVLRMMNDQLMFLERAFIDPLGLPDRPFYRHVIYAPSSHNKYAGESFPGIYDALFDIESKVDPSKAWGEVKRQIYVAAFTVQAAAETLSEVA

Molecule | Relative Binding Affinity (PSMA; [3]) | Relative Binding Affinity (PSMA; relative) | % Remaining 0 min [1] [%] | % Remaining 1 h [1] [%] | % Remaining 4 h [1] [%] | % Remaining 24 h [1] [%] | % Remaining 48 h [1] [%] | % Remaining 72 h [1] [%] | T/K at 4 h (tumor uptake/kidney uptake) [2] | T at 24 h (tumor uptake) [2] | T/K at 24 h (tumor uptake/kidney uptake) [2] | T at 96 h (tumor uptake) [2] | T/K at 96 h (tumor uptake/kidney uptake) [2] | further results
O=C(O)CC[C@H](NC(=O)N[C@@H](CCCCNC(=O)[C@H](Cc1ccc2ccccc2c1)NC(=O)[C@H]1CC[C@H](CNC(=O)[C@H](CCCCNC(=O)CN2CCN(CC(=O)O)CCN(CC(=O)O)CCN(CC(=O)O)CC2)NC(=O)[C@H](CCC(=O)O)NC(=O)CCCc2ccc(I)cc2)CC1)C(=O)O)C(=O)O [Example C-2, 4pIBA-Glu-Lys(DOTA)-Trx-2NaI-eKuE, reference compound] | 1.78 | 1.78 | 100 | 100 | 100 | 100 | 100 | 100 | 0.3 | 41.1 | 1.0 | 20.0 | 3.7 | T½ (h) [1, 4]: Stable; uptake ratio between tumor to kidney ([2]; compared to PSMA-617 (C-1)): poor uptake ratio between tumor to kidney
Cc1ccc(CCCC(=O)NCCCC[C@H](NC(=O)CN2CCN(CC(=O)O)CCN(CC(=O)O)CCN(CC(=O)O)CC2)C(=O)NCC2CCC(C(=O)N[C@@H](Cc3ccc4ccccc4c3)C(=O)NCCCC[C@H](NC(=O)N[C@@H](CCC(=O)O)C(=O)O)C(=O)O)CC2)cc1 (stereo partly shown) [Example C-10, DOTA-Lys(pTBA)-Trx-2NaI-eKuE] | – | 0.92 | – | – | – | – | – | – | – | – | – | – | – | T at 24 h (tumor uptake) (LNCap tumor-bearing mice; LNCap tumor-bearing mice, 24 h): 46.5; T/K at 24 h (tumor uptake/kidney uptake) (LNCap tumor-bearing mice; LNCap tumor-bearing mice, 24 h): 0.89; T at 96 h (tumor uptake) (LNCap tumor-bearing mice; LNCap tumor-bearing mice, 96 h): 34.9; T/K at 96 h (tumor uptake/kidney uptake) (LNCap tumor-bearing mice; LNCap tumor-bearing mice, 96 h): 3.17; uptake ratio between tumor to kidney (LNCap tumor-bearing mice; compared to PSMA-617 (C-1)): poor uptake ratio between tumor to kidney
O=C(O)CC[C@H](NC(=O)N[C@@H](CCCCNC(=O)[C@H](Cc1ccc2ccccc2c1)NC(=O)[C@H]1CC[C@H](CNC(=O)[C@H](CCCCNC(=O)CN2CCN(CC(=O)O)CCN(CC(=O)O)CCN(CC(=O)O)CC2)NC(=O)CCCOC(=O)CNC(=O)[C@H](CCC(=O)O)NC(=O)CCCc2ccc(I)cc2)CC1)C(=O)O)C(=O)O [Example I-2, 4pIBA-Glu-ESL1-Lys(DOTA)-Trx-2NaI-eKuE] | 1.59 | 0.75 | 100 | 95.6 | 93.2 | 76.5 | 67.5 | 57.3 | 0.6 | 32.4 | 5.0 | 9.8 | 10.1 | T½ [1, 4]: 80.4 h; uptake ratio between tumor to kidney ([2]; mice bearing PC3-PIP tumor, compared to HTK01169 (C-2)): improved uptake ratio between tumor to kidney
O=C(O)CC[C@H](NC(=O)N[C@@H](CCCCNC(=O)[C@H](Cc1ccc2ccccc2c1)NC(=O)[C@H]1CC[C@H](CNC(=O)[C@H](CCCCNC(=O)CCCOC(=O)CNC(=O)CN2CCN(CC(=O)O)CCN(CC(=O)O)CCN(CC(=O)O)CC2)NC(=O)[C@H](CCC(=O)O)NC(=O)CCCc2ccc(I)cc2)CC1)C(=O)O)C(=O)O [Example I-3, 4pIBA-Glu-Lys(-ESL1-DOTA)-Trx-2NaI-eKuE] | 1.30 | 1.30 | 100 | 88.6 | 54.8 | 13.0 | 9.30 | 3.99 | 0.3 | 13.9 | 0.8 | 6.3 | 4.0 | T½ (h) [1, 4]: 4.9* h
O=C(O)CC[C@H](NC(=O)N[C@@H](CCCCNC(=O)[C@H](Cc1ccc2ccccc2c1)NC(=O)[C@H]1CC[C@H](CNC(=O)[C@H](CCCCNC(=O)CCC(=O)NCCSSCCNC(=O)CN2CCN(CC(=O)O)CCN(CC(=O)O)CCN(CC(=O)O)CC2)NC(=O)[C@H](CCC(=O)O)NC(=O)CCCc2ccc(I)cc2)CC1)C(=O)O)C(=O)O [Example I-4, 4pIBA-Glu-Lys(-SSL1-DOTA)-Trx-2NaI-eKuE] | 0.95 | 0.95 | – | – | – | – | – | – | 0.1 | 0.79 | 0.2 | 0.3 | 1.2 | –
O=C(O)CC[C@H](NC(=O)N[C@@H](CCCCNC(=O)[C@H](Cc1ccc2ccccc2c1)NC(=O)[C@H]1CC[C@H](CNC(=O)COCCOCCNC(=O)[C@H](CCCCNC(=O)CCCOC(=O)CNC(=O)CN2CCN(CC(=O)O)CCN(CC(=O)O)CCN(CC(=O)O)CC2)NC(=O)[C@H](CCCCNC(=O)COCCOCCNC(=O)COCCOCCNC(=O)[C@H](CCC(=O)O)NC(=O)CCCc2ccc(I)cc2)NC(=O)COCCOCCNC(=O)COCCOCCNC(=O)[C@H](CCC(=O)O)NC(=O)CCCc2ccc(I)cc2)CC1)C(=O)O)C(=O)O [Example I-7, 4pIBA-Glu-OEG-OEG-Lys(-OEG-OEG-Glu-4pIBA)-Lys(-ESL1-DOTA)-OEG-Trx-2NaI-eKuE] | 0.56 | 0.54 | – | – | – | – | – | – | 0.7 | 16.7 | 0.9 | 2.6 | 1.4 | –
O=C(O)CCCCCCCCCCCCCCCCC(=O)N[C@@H](CCC(=O)NCCOCCOCC(=O)NCCOCCOCC(=O)N[C@@H](CCCCNC(=O)CCCOC(=O)CNC(=O)CNC(=O)CNC(=O)CNC(=O)CN1CCN(CC(=O)O)CCN(CC(=O)O)CCN(CC(=O)O)CC1)C(=O)NCCOCCOCC(=O)NC[C@H]1CC[C@H](C(=O)N[C@@H](Cc2ccc3ccccc3c2)C(=O)NCCCC[C@H](NC(=O)N[C@@H](CCC(=O)O)C(=O)O)C(=O)O)CC1)C(=O)O [Example I-46, HO-C18-gGlu-OEG-OEG-Lys(-ESL1-Gly-Gly-Gly-DOTA)-OEG-Trx-2NaI-eKuE] | – | – | 100 | 95.1 | 93.5 | 81.9 | 70.6 | 55.9 | – | – | – | – | – | T½ (h) [1, 4]: 102* h
(HO-C18-gGlu-Lys(-OEG-DOTA)-OEG-OEG-OEG-NH2CH2CH2NH-TMA(-OEG-Trx-2NaI-eKuE)2 [Example C-7, reference compound] | 0.14 | 0.14 | – | – | – | – | – | – | – | – | – | – | – | –
DOTA-gGlu(-eLys-4pIBA)-Trx-2NaI-eKuE [Example C-9, reference compound] | 0.92 | – | – | – | – | – | – | – | – | – | – | – | – | –
HO-C18-gGlu-OEG-OEG-Gly-5hPA-Lys(DOTA)-OEG-Trx-2NaI-eKuE [Example I-49] | 0.09 | 0.09 | – | – | – | – | – | – | – | – | – | – | – | –
HO-C18-gGlu-OEG-OEG-OEG-Lys(DOTA)-OEG-Trx-2NaI-eKuE [Example C-6, reference compound] | 0.05 | 0.05 | – | – | – | – | – | – | – | – | – | – | – | –
[HO-C20-gGlu-Lys(-ESL1-ESL1-ESL1-DOTA)-OEG-OEG-OEG-NH2CH2CH2NH—]-TMA-(-OEG-Trx-2NaI-eKuE)2 [Example I-44] | 0.13 | – | – | – | – | – | – | – | – | – | – | – | – | –
